Data taken from patent US20220064330A1.

B1: bovine FXa (activated bovine clotting factor X) (protein)
chain: ANSFLEEVKQGNLERECLEEACSLEEAREVFEDAEQTDEFWSKYKDGDQCEGHPCLNQGHCKDGIGDYTCTCAEGFEGKNCEFSTREICSLDNGGCDQFCREERSEVRCSCAHGYVLGDDSKSCVSTERFPCGKFTQGRSRRWAIHTSEDALDASELEHYDPADLSPTESSLDLLGLNRTEPSAGEDGSQVVRIVGGRDCAEGECPWQALLVNEENEGFCGGTILNEFYVLTAAHCLHQAKRFTVRVGDRNTEQEEGNEMAHEVEMTVKHSRFVKETYDFDIAVLRLKTPIRFRRNVAPACLPEKDWAEATLMTQKTGIVSGFGRTHEKGRLSSTLKMLEVPYVDRSTCKLSSSFTITPNMFCAGYDTQPEDACQGDSGGPHVTRFKDTYFVTGIVSWGEGCARKGKFGVYTKVSNFLKWIDKIMKARAGAAGSRGHSEAPATWTVPPPLPL

Columns and labels:
complement C3 = complement C3 (UniProt P01024)

complement C3, P01024, sequence (P01024 whole entry, looked up): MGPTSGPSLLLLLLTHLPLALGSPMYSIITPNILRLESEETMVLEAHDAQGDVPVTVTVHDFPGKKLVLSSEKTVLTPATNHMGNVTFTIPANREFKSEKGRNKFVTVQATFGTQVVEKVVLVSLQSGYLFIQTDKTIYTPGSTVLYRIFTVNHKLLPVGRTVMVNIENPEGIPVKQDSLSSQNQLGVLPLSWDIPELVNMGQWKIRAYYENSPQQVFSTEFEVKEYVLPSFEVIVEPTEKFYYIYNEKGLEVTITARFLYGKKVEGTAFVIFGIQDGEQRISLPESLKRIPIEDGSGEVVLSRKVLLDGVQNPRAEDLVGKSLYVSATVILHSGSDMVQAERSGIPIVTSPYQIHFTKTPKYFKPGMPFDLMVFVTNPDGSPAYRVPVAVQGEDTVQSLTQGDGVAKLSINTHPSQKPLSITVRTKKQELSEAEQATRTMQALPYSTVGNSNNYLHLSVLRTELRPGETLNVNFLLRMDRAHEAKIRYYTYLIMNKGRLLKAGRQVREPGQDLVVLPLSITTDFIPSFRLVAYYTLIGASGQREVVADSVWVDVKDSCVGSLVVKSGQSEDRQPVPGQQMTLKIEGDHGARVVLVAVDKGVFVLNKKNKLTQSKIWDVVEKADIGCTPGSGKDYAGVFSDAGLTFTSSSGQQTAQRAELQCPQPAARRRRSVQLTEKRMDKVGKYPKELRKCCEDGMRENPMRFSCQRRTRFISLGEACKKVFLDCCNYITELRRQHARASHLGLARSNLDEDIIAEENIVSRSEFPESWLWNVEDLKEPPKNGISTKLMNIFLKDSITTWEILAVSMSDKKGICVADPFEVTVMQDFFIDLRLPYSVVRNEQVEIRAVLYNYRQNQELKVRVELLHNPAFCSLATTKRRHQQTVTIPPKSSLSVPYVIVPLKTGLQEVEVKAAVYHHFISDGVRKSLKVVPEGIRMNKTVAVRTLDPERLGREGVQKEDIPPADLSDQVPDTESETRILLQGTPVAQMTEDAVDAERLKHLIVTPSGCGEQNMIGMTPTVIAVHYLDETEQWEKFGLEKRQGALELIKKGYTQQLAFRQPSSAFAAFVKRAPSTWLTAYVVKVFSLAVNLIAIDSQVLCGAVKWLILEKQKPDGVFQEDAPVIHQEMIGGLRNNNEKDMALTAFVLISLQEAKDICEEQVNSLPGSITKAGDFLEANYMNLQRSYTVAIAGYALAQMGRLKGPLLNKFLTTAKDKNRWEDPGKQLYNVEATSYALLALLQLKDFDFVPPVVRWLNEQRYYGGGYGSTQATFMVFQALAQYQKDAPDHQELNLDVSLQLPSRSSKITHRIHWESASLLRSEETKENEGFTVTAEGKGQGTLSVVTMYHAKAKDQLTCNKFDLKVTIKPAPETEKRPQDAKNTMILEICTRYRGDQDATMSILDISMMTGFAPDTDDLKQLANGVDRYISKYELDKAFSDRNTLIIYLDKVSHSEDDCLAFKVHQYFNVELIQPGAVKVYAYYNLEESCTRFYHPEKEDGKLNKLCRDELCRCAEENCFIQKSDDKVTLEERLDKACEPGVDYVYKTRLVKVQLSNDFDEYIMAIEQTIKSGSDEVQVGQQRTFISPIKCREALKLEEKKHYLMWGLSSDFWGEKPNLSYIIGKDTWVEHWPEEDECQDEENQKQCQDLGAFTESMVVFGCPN

Molecule | cleavage of the C3 a-chain to the a' chain (Western blot) (complement C3) | cleavage of the C3 a-chain to the a' chain (Western blot) (complement C3, P01024)
human FXIa (activated human clotting factor XI) | can cleave C3 in vitro in the absence of any complement proteases | –
human FXa (activated human clotting factor X) | can cleave C3 in vitro in the absence of any complement proteases | –
B1 | – | can cleave C3 in vitro in the absence of any complement proteases
